According to patent US20200353003A1:

Target: BDCA2 antigen (CLEC4C, CD303) expressed on transduced RS4-11 and A95-KK reporter cells (UniProt Q8WTT0)
Experiment: cell-based or functional assay

Sequence of UniProt Q8WTT0 (Q8WTT0 whole entry): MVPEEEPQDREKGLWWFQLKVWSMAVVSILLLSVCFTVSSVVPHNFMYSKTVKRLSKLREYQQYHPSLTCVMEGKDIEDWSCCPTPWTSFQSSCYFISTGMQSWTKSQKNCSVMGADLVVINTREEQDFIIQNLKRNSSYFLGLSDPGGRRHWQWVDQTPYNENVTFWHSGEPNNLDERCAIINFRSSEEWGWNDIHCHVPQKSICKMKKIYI

B1: BDCA2 CAR (chimeric antigen receptor specific for BDCA2, with aBDCA2-scFV as binder) (protein, part only; not given: hinge, transmembrane and signaling domains, not shown: another chain or arm of the molecule; a dimerising Fc or GST)
scFv: DIQMTQSPSSVSASVGDRVTITCRASQEISGYLSWYQQKPGKAIKRLIYAASTLDSGVPSRFSGSRSGTDFTLTISSLQSEDFATYYCLQYASYPPTFGGGTKLEIKGGGGSGGGGSGGGGSQVTLKESGPTLVKPTQTLTLTCTFSGFSLSTSGMGVGWIRQPPGKALEWLAHIWWEDDKYYNPSLKSRLTITKDTSKNQVVLTMTNMDPVDTATYYCTRNWDYYTMDYWGQGTTVTVSS
Question: How did the killing of target cells expressing BDCA2 (reporter-BDCA2 and RS4-11-BDCA2) by NK and T cells expressing BDCA2-CAR, flow cytometry based cytotoxic assay, E:T=1:1 turn out when B1 was run?
Answer: > 70%
